In US20050032695A1:
Like-named read-outs stand apart in the source and are kept apart here.

Legend:
Test in all cases: cell-based or functional assay
[1] = target: adenylyl cyclase (AC) in rat spinal cord lysates/membranes (rat)
[2] = target: adenylyl cyclase (AC) in rat spinal cord lysates/membranes (rat); remark: listed apart in the source
[3] = target: adenylyl cyclase (AC) in rat dorsal root ganglia (DRG) lysates (rat)

inhibition of Gαs-stimulated AC activity, spinal cord lysates of control animals, 30 nM PAM [1]: 50% | inhibition of Gαs-stimulated AC activity, spinal cord lysates of animals treated for 1 hour with formalin, 30 nM PAM [2]: 25% | inhibition of Gαs-stimulated AC activity, spinal cord lysates of control animals, 30 nM PAM [2]: 49% | inhibition of Gαs-stimulated AC activity, spinal cord lysates of rats 96 hours after zymosan injection, 30 nM PAM [2]: 70% | inhibition of Gαs-stimulated AC activity, spinal cord preparations of zymosan-treated animals [2]: 75% | inhibition of Gαs-stimulated AC activity, DRG lysates, 30 nM PAM [3]: 32%
Substance: PAM (Protein Associated with Myc), full length, purified from HeLa cells (from UniProt O75592 1-4678)
